According to US20200255474:

Molecular target: recombinant PHB2
Sequence (chain, as listed by the source): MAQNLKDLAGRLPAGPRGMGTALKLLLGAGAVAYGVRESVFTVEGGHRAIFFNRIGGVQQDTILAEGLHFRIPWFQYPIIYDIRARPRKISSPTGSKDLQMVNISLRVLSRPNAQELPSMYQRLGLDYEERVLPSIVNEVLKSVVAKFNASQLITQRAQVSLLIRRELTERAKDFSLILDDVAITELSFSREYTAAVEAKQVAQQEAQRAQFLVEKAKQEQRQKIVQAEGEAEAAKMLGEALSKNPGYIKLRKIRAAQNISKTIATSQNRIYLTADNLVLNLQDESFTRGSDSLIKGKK

B1: recombinant MK5 (protein)
chain: MSEESDMDKAIKETSILEEYSINWTQKLGAGISGPVRVCVKKSTQERFALKILLDRPKARNEVRLHMMCATHPNIVQIIEVFANSVQFPHESSPRARLLIVMEMMEGGELFHRISQHRHFTEKQASQVTKQIALALRHCHLLNIAHRDLKPENLLFKDNSLDAPVKLCDFGFAKIDQGDLMTPQFTPYYVAPQVLEAQRRHQKEKSGIIPTSPTPYTYNKSCDLWSLGVIIYVMLCGYPPFYSKHHSRTIPKDMRRKIMTGSFEFPEEEWSQISEMAKDVVRKLLKVKPEERLTIEGVLDHPWLNSTEALDNVLPSAQLMMDKAVVAGIQQAHAEQLANMRIQDLKVSLKPLHSVNNPILRKRKLLGTKPKDSVYIHDHENGAEDSNVALEKLRDVIAQCILPQAGKGENEDEKLNEVMQEAWKYNRECKLLRDTLQSFSWNGRGFTDKVDRLKLAEIVKQVIEEQTTSHESQ
  phosphorylation of PHB2 (Phos-tag SDS-PAGE), molar ratio PHB2:MK5=1:0.25: 6.5% phosphorylation
  phosphorylation of PHB2 (Phos-tag SDS-PAGE), molar ratio PHB2:MK=1:2 or more: a band for 75% phosphorylation was detected

B2: recombinant TTK (protein)
chain: MESEDLSGRELTIDSIMNKVRDIKNKFKNEDLTDELSLNKISADTTDNSGTVNQIMMMANNPEDWLSLLLKLEKNSVPLSDALLNKLIGRYSQAIEALPPDKYGQNESFARIQVRFAELKAIQEPDDARDYFQMARANCKKFAFVHISFAQFELSQGNVKKSKQLLQKAVERGAVPLEMLEIALRNLNLQKKQLLSEEEKKNLSASTVLTAQESFSGSLGHLQNRNNSCDSRGQTTKARFLYGENMPPQDAEIGYRNSLRQTNKTKQSCPFGRVPVNLLNSPDCDVKTDDSVVPCFMKRQTSRSECRDLVVPGSKPSGNDSCELRNLKSVQNSHFKEPLVSDEKSSELIITDSITLKNKTESSLLAKLEETKEYQEPEVPESNQKQWQSKRKSECINQNPAASSNHWQIPELARKVNTEQKHTTFEQPVFSVSKQSPPISTSKWFDPKSICKTPSSNTLDDYMSCFRTPVVKNDFPPACQLSTPYGQPACFQQQQHQILATPLQNLQVLASSSANECISVKGRIYSILKQIGSGGSSKVFQVLNEKKQIYAIKYVNLEEADNQTLDSYRNEIAYLNKLQQHSDKIIRLYDYEITDQYIYMVMECGNIDLNSWLKKKKSIDPWERKSYWKNMLEAVHTIHQHGIVHSDLKPANFLIVDGMLKLIDFGIANQMQPDTTSVVKDSQVGTVNYMPPEAIKDMSSSRENGKSKSKISPKSDVWSLGCILYYMTYGKTPFQQIINQISKLHAIIDPNHEIEFPDIPEKDLQDVLKCCLKRDPKQRISIPELLAHPYVQIQTHPVNQMAKGTTEEMKYVLGQLVGLNSPNSILKAAKTLYEHYSGGESHNSSSSKTFEKKRGKK
  phosphorylation of PHB2 (Phos-tag SDS-PAGE), molar ratio PHB2:TTK=1:2 or greater: a band for 75% phosphorylation was clearly detected
  phosphorylation of PHB2 (Phos-tag SDS-PAGE), molar ratio TTK:PHB2 1:1: 28% phosphorylation
